Assay results as given in paper PMC2867299 (The Journal of Cell Biology, 2010).

Target: T1, GST-Myo4p-L-GT (Myo4p linker and globular tail, from residue 1042) (S. cerevisiae, UniProt P32492 1042-1471)
T1 sequence: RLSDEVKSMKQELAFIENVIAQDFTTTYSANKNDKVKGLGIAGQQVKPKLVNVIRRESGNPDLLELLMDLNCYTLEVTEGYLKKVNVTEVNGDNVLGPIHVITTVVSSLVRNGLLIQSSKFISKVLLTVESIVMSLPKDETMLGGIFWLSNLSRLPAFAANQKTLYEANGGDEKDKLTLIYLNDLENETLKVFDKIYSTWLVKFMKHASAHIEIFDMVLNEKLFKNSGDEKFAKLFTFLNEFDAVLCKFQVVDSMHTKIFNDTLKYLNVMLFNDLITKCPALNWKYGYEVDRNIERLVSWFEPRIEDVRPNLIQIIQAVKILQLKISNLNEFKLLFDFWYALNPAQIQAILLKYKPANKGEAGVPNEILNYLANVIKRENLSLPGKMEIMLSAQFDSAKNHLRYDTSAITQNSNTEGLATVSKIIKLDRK
Assay: pull-down

B1: His-She3p-N (N-terminal half of She3p, aa 1-234) (domain or fragment)
chain: MSDQDNTQTSSSKLAPHHNIFMANLESSPTKDRNTSSQNASSSRVIESLHDQIDMLTKTNLQLTTQSQNLLSKLELAQSKESKLLENLNLLKNENENLNSIFERKNKKLKELEKDYSELSNRYNEQKEKMDQLSKLAKNSSAIEQSCSEKLQNMEVNYNSLLESQNLYRDHYSDEISKLNEKIGLLELELSNQNLNYGSDTSSNSDIELNLNKFNDSVKDLKSLETEKDSKLSK
binding result: binds
